Assay results from patent publication US20130143793A1 (ZEALAND PHARMA A S, published 2013).
Bridge positions count the residues as written; N and C are the ends. Square brackets hold non-standard residues; d marks the D form. Ends that are not written are not given here. Orn = NCCC[C@H](N)C(=O)O

T1: human CCK-B receptor (human, UniProt P32239 1-447)
T1 sequence (looked up): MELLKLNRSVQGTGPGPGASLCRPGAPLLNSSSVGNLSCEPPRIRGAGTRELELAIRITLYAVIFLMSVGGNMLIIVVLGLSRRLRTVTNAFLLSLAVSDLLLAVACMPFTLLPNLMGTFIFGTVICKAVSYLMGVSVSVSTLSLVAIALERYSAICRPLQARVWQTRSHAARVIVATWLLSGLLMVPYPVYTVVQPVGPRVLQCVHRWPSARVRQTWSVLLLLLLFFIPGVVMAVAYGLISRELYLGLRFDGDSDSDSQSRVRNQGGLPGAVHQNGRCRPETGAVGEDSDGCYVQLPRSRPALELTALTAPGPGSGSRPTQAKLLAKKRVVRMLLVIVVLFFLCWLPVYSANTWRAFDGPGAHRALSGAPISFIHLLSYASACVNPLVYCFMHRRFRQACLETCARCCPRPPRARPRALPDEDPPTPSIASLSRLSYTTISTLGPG


How the values were obtained:
human GLP-1 receptor = human GLP-1 receptor (human, UniProt P43220 24-463); assay: cell-based or functional assay
human CCK-B receptor = biological target: T1, human CCK-B receptor; assay: cell-based or functional assay

| Binder | hGLP-1 R EC50 (cAMP) (human GLP-1 receptor) | hCCK-B R EC50 (p-ERK) (human CCK-B receptor) |
| --- | --- | --- |
| HGEGTFTSDLSKQMEEEAVRLFIEWLKNYGWTDF (C-terminal amide) [Exendin-4(1-28)-[Thr4]Gastrin6] | 0.044 nM | 58 nM |
| HGEGTFTSDLSKQMEEEAVRLFIEWLKNYGWFDF (C-terminal amide) [Exendin-4(1-28)-[Phe4]Gastrin6] | 0.044 nM | 140 nM |
| HGEGTFTSDLSKQLEEEAVRLFIEWLKNYGXLDF (1Nal (1-naphthylalanine) at position 3 of the Gastrin6 moiety; C-terminal amide) [[Leu14]Exendin-4(1-28)-[1Nal3,Leu4]Gastrin6] | 0.04 nM | 270 nM |
| HGEGTFTSDLSKQLEEEAVRLFIEWLKNYGWXDF (Nle at position 4 of the Gastrin6 moiety; C-terminal amide) [[Leu14]Exendin-4(1-28)-[Nle4]Gastrin6] | 0.052 nM | 24 nM |
| HGEGTFTSDLSKQLEEEAVRLFIEWLKNYGWLDX (3-(3-Pyridyl)-alanine at position 6 of the Gastrin6 moiety; C-terminal amide) [[Leu14]Exendin-4(1-28)-[Leu4,[3-(3-Pyridyl)-Ala]6]Gastrin6] | – | 20 nM |
| HGEGTFTSELSKYLEEEAVRLFIEFLK[Peg3][Peg3]YGWLDF-NH2 [[Glu9,Leu14,Phe25,Tyr13]Exendin-4(1-27)-Peg3-Peg3-[Leu4]Gastrin6] | 0.046 nM | 20 nM |
| HGEGTFTSDLSKYLEEEAVRLFIEFLK[Peg3][Peg3]YGFLDF-NH2 [[Leu14,Phe25,Tyr13]Exendin-4(1-27)-Peg3-Peg3-[Leu4,Phe3]Gastrin6] | – | 1200 nM |
| HGEGTFTSELSKYLEEEAVRLFIEFLK[Peg3][Peg3]YGFLDF-NH2 [[Glu9,Leu14,Phe25,Tyr13]Exendin-4(1-27)-Peg3-Peg3-[Leu4,Phe3]Gastrin6] | 0.032 nM | 1300 nM |
| HGEGTFTSDLSKYLEEEAVRLFIEFLR[Peg3]YGWLDF-NH2 [[Arg27,Leu14,Phe25,Tyr13]Exendin-4(1-27)-Peg3-[Leu4]Gastrin6] | 0.068 nM | 18 nM |
| HGEGTFTSDLSRYLEKEAVRLFIEFLR[Peg3]YGWLDF-NH2 [[Arg12,27,Leu14,Lys16,Phe25,Tyr13]Exendin-4(1-27)-Peg3-[Leu4]Gastrin6] | 0.17 nM | 26 nM |
| HGEGTFTSDLSRYLEEEAVKLFIEFLR[Peg3]YGWLDF-NH2 [[Arg12,27,Leu14,Lys20,Phe25,Tyr13]Exendin-4(1-27)-Peg3-[Leu4]Gastrin6] | 0.058 nM | 26 nM |
| HGEGTFTSDLSRYLEEEAVRLFIKFLR[Peg3]YGWLDF-NH2 [[Arg12,27,Leu14,Lys24,Phe25,Tyr13]Exendin-4(1-27)-Peg3-[Leu4]Gastrin6] | 0.13 nM | 36 nM |
| HGEGTFTSDLSRYLEEEAVRLFIEFLK[Peg3]YGWLDF-NH2 [[Arg12,Leu14,Phe25,Tyr13]Exendin-4(1-27)-Peg3-[Leu4]Gastrin6] | 0.079 nM | 14 nM |
| HGEGTFTSELSKYLEEEAVRLFIEFLKWLDF-NH2 [[Glu9,Leu14,Phe25,Tyr13]Exendin-4(1-27)-[Leu2]Gastrin4] | 1.2 nM | 211 nM |
| HGEGTFTSELSKYLEEEAVRLFIEFLK[Peg3]WLDF-NH2 [[Glu9,Leu14,Phe25,Tyr13]Exendin-4(1-27)-Peg3-[Leu2]Gastrin4] | 0.06 nM | 13 nM |
| HGEGTFTSELSKYLEEEAVRLFIEFLK[Orn][Peg3]WLDF-NH2 [[Glu9,Leu14,Phe25,Tyr13]Exendin-4(1-27)-Orn-Peg3-[Leu2]Gastrin4] | 0.046 nM | 10 nM |
| HGEGTFTSELSKYLEEEAVRLFIEFLK[Peg3][Orn]WLDF-NH2 [[Glu9,Leu14,Phe25,Tyr13]Exendin-4(1-27)-Peg3-Orn-[Leu2]Gastrin4] | 0.041 nM | 51 nM |

| Binder | hGLP-1 R EC50 (cAMP) (human GLP-1 receptor) | hCCK-B R EC50 (p-ERK) (human CCK-B receptor) |
| --- | --- | --- |
| HGEGTFTSELSKYLEEEAVRLFIEFLK[Orn][Orn]WLDF-NH2 (N-terminus assumed; SMILES CC[C@H](C)[C@H](NC(=O)[C@H](Cc1ccccc1)NC(=O)[C@H](CC(C)C)NC(=O)[C@H](CCCNC(=N)N)NC(=O)[C@@H](NC(=O)[C@H](C)NC(=O)[C@H](CCC(=O)O)NC(=O)[C@H](CCC(=O)O)NC(=O)[C@H](CCC(=O)O)NC(=O)[C@H](CC(C)C)NC(=O)[C@H](Cc1ccc(O)cc1)NC(=O)[C@H](CCCCN)NC(=O)[C@H](CO)NC(=O)[C@H](CC(C)C)NC(=O)[C@H](CCC(=O)O)NC(=O)[C@H](CO)NC(=O)[C@@H](NC(=O)[C@H](Cc1ccccc1)NC(=O)[C@@H](NC(=O)CNC(=O)[C@H](CCC(=O)O)NC(=O)CNC(=O)[C@@H](N)Cc1c[nH]cn1)[C@@H](C)O)[C@@H](C)O)C(C)C)C(=O)N[C@@H](CCC(=O)O)C(=O)N[C@@H](Cc1ccccc1)C(=O)N[C@@H](CC(C)C)C(=O)N[C@@H](CCCCN)C(=O)N[C@@H](CCCN)C(=O)N[C@@H](CCCN)C(=O)N[C@@H](Cc1c[nH]c2ccccc12)C(=O)N[C@@H](CC(C)C)C(=O)N[C@@H](CC(=O)O)C(=O)N[C@@H](Cc1ccccc1)C(N)=O) [[Glu9,Leu14,Phe25,Tyr13]Exendin-4(1-27)-Orn-Orn-[Leu2]Gastrin4] | 0.11 nM | 860 nM |
| HGEGTFTSELSKYLEEEAVRLFIEFLKYGWLDF-NH2 [[Glu9,Leu14,Phe25,Tyr13]Exendin-4(1-27)-[Leu4]Gastrin6] | 0.11 nM | 30 nM |
| HGEGTFTSELSKYLEEEAVRLFIEFLK[Peg3]YGWLDF-NH2 [[Glu9,Leu14,Phe25,Tyr13]Exendin-4(1-27)-Peg3-[Leu4]Gastrin6] | – | 54 nM |
| HGEGTFTSELSKYLEEEAVRLFIEFLK[Orn][Peg3]YGWLDF-NH2 [[Glu9,Leu14,Phe25,Tyr13]Exendin-4(1-27)-Orn-Peg3-[Leu4]Gastrin6] | 0.12 nM | 100 nM |
| HGEGTFTSELSKYLEEEAVRLFIEFLK[Peg3][Orn]YGWLDF-NH2 [[Glu9,Leu14,Phe25,Tyr13]Exendin-4(1-27)-Peg3-Orn-[Leu4]Gastrin6] | 0.087 nM | 8.8 nM |
| HGEGTFTSELSKYLEEEAVRLFIEFLK[Orn][Orn]YGWLDF-NH2 (N-terminus assumed; SMILES CC[C@H](C)[C@H](NC(=O)[C@H](Cc1ccccc1)NC(=O)[C@H](CC(C)C)NC(=O)[C@H](CCCNC(=N)N)NC(=O)[C@@H](NC(=O)[C@H](C)NC(=O)[C@H](CCC(=O)O)NC(=O)[C@H](CCC(=O)O)NC(=O)[C@H](CCC(=O)O)NC(=O)[C@H](CC(C)C)NC(=O)[C@H](Cc1ccc(O)cc1)NC(=O)[C@H](CCCCN)NC(=O)[C@H](CO)NC(=O)[C@H](CC(C)C)NC(=O)[C@H](CCC(=O)O)NC(=O)[C@H](CO)NC(=O)[C@@H](NC(=O)[C@H](Cc1ccccc1)NC(=O)[C@@H](NC(=O)CNC(=O)[C@H](CCC(=O)O)NC(=O)CNC(=O)[C@@H](N)Cc1c[nH]cn1)[C@@H](C)O)[C@@H](C)O)C(C)C)C(=O)N[C@@H](CCC(=O)O)C(=O)N[C@@H](Cc1ccccc1)C(=O)N[C@@H](CC(C)C)C(=O)N[C@@H](CCCCN)C(=O)N[C@@H](CCCN)C(=O)N[C@@H](CCCN)C(=O)N[C@@H](Cc1ccc(O)cc1)C(=O)NCC(=O)N[C@@H](Cc1c[nH]c2ccccc12)C(=O)N[C@@H](CC(C)C)C(=O)N[C@@H](CC(=O)O)C(=O)N[C@@H](Cc1ccccc1)C(N)=O) [[Glu9,Leu14,Phe25,Tyr13]Exendin-4(1-27)-Orn-Orn-[Leu4]Gastrin6] | 0.11 nM | 16 nM |
| HGEGTFTSDLSKQMEEEAVRLFIEWLKDXXYGWLDF (Peg3-Peg3 linker; C-terminal amide) [[Asp28]Exendin-4(1-28)-Peg3-Peg3-[Leu4]Gastrin6] | 0.061 nM | 3.3 nM |
| HGEGTFTSDLSKYMEEEAVRLFIEWLKN[Peg3][Peg3]YGWLDF-NH2 [[Tyr13]Exendin-4(1-28)-Peg3-Peg3-[Leu4]Gastrin6] | 0.046 nM | 12 nM |
| HGEGTFTSDLSKQMEEEAV[Orn]LFIEWLKN[Peg3][Peg3]YGWLDF-NH2 [[Orn20]Exendin-4(1-28)-Peg3-Peg3-[Leu4]Gastrin6] | 0.038 nM | 15 nM |
| HGEGTFTSDLSKQMEEEAVRLFIEWLKNYGWLDF (C-terminal amide) [Exendin-4(1-28)-[Leu4]Gastrin6] | 0.061 nM | 14 nM |
| HGEGTFTSDLSKQMEEEAVRLFIEWLKEEEEAYGWLDF (C-terminal amide) [Exendin-4(1-27)-[Leu4]Gastrin11] | 0.1 nM | 4.3 nM |
| HGEGTFTSDLSKYLEEEAVRLFIEWLK[Peg3][Peg3]YGWLDF-NH2 [[Tyr13,Leu14]Exendin-4(1-27)-Peg3-Peg3-[Leu4]Gastrin6] | 0.05 nM | 8.4 nM |
| HGEGTFTSDLSKYMEEEAVRLFIEFLK[Peg3][Peg3]YGWLDF-NH2 [[Tyr13,Phe25]Exendin-4(1-27)-Peg3-Peg3-[Leu4]Gastrin6] | 0.035 nM | 8.4 nM |
| HGEGTFTSDLSKQLEEEAVRLFIEFLKXXYGWLDF (Peg3-Peg3 linker; C-terminal amide) [[Leu14,Phe25]Exendin-4(1-27)-Peg3-Peg3-[Leu4]Gastrin6] | 0.026 nM | 7.9 nM |
| HGEGTFTSDLSKYLEEEAVRLFIEFLK[Peg3][Peg3]YGWLDF-NH2 [[Tyr13,Leu14,Phe25]Exendin-4(1-27)-Peg3-Peg3-[Leu4]Gastrin6] | 0.044 nM | – |
| HGEGTFTSDLSKQMEEEAVKLFIEWLKN[Peg3][Peg3]YGWLDF-NH2 (lactam 16-20) [Side chain-cyclo([Glu16,Lys20]Exendin-4(1-28)-Peg3-Peg3-[Leu4]Gastrin6] | 0.026 nM | – |
| HGEGTFTSDLSKQMEEEAVKLFIEWLKN[Peg3][Peg3]YGWLDF-NH2 (lactam 20-24) [Side chain-cyclo([Lys20,Glu24]Exendin-4(1-28)-Peg3-Peg3-[Leu4]Gastrin6] | 0.032 nM | 4 nM |
